Assay results from patent publication US7252930 (Takeda / Millennium, dated 2007).

Target: the molecule itself
Assay: X-ray crystal structure, homodimer in the asymmetric unit

B1: MvaS (HMG-CoA Synthase) from Enterococcus faecalis, full length with non-cleavable carboxy-terminal six histidine tag, seleno-methionine labeled (enzyme)
chain: MTIGIDKISFFVPPYYIDMTALAEARNVDPGKFHIGIGQDQMAVNPISQDIVTFAANAAEAILTKEDKEAIDMVIVGTESSIDESKAAAVVLHRLMGIQPFARSFEIKEACYGATAGLQLAKNHVALHPDKKVLVVAADIAKYGLNSGGEPTQGAGAVAMLVASEPRILALKEDNVMLTQDIYDFWRPTGHPYPMVDGPLSNETYIQSFAQVWDEHKKRTGLDFADYDALAFHIPYTKMGKKALLAKISDQTEAEQERILARYEESIVYSRRVGNLYTGSLYLGLISLLENATTLTAGNQIGLFSYGSGAVAEFFTGELVAGYQNHLQKETHLALLDNRTELSIAEYEAMFAETLDTDIDQTLEDELKYSISAINNTVRSYRNKGHHHHHH
modifications: seleno-methionine in place of methionine (100% incorporation by MS); observed mass corresponds to protein without N-terminal methionine
notes: It was crystallized as a complex with the small molecule HMG-CoA; There are two MvaS molecules (A and B) in the asymmetric unit, described as a dimer; also called MvaS Ef
binding result: binds
